Assays:
[1] = biological target: GabR (Cg0565), PucR-type transcriptional regulator of Corynebacterium glutamicum (Corynebacterium glutamicum ATCC 13032); test: SEC; Tag-free GabR on Superdex 200 Increase 10/300 GL, 100 mM phosphate buffer pH 7.0 with 1 mM DTT, 0.75 mL/min; native size from a calibration curve (Kav versus log Mr) of standard proteins; apparent mass 420 kDa against a theoretical monomer mass of 55.75 kDa
GabR [2] = biological target: T1, GabR (Corynebacterium glutamicum WT, UniProt Q8NT36 1-504); test: EMSA; complex band absent from negative control; 10 mM Tris-HCl pH 7.5, 50 mM NaCl, 5% glycerol, 0.005% Triton X-100, 20 min at room temperature; 100 ng DNA, 0-2.6 uM GabR monomer; native PAGE in TB buffer pH; details: protein: recombinant; tags: N-terminal His10 removed with TEV protease; chain copies: 8; blunt
T1 sequence: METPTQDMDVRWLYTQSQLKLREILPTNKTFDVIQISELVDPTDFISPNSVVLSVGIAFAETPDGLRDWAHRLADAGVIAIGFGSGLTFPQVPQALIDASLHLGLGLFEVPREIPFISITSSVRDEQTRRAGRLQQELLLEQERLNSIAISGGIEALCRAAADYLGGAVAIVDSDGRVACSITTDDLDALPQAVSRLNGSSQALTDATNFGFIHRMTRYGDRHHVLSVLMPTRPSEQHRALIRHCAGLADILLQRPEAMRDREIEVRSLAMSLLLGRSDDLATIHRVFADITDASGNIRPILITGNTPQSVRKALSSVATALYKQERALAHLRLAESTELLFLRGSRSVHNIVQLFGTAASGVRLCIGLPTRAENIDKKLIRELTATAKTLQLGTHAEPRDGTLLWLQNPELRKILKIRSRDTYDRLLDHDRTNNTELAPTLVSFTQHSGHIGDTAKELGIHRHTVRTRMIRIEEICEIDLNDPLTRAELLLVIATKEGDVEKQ

GabR [3] = biological target: T1, GabR; test: EMSA; reasonable binding; 10 mM Tris-HCl pH 7.5, 50 mM NaCl, 5% glycerol, 0.005% Triton X-100, 20 min at room temperature; 100 ng DNA, 0-2.6 uM GabR monomer; native PAGE in TB buffer pH; details: protein: recombinant; tags: N-terminal His10 removed with TEV protease; chain copies: 8; blunt

## GabR (Cg0565), PucR-type transcriptional regulator of Corynebacterium glutamicum (natural protein)
[1]
  stoichiometry N: 8

B1: NC3 (dsDNA)
DNA 1: CACAGGAGGAACCGTGGAAGATCTCTCATAC
DNA 2: GTATGAGAGATCTTCCACGGTTCCTCCTGTG
GabR [2]
  binding result: no binding

B2: FS3 (dsDNA)
DNA 1: CTGTCAATTATCCATATGGGCGAAATATTGT
DNA 2: ACAATATTTCGCCCATATGGATAATTGACAG
GabR [3]
  binding result: binds
